# Assay results: patent US20030232009A1 (Amgen, published 2003)
# Residue numbers refer to the chain shown, from its start.
# T1: Human 20.2 peptide (human)
# T1 construct: synthetic peptide from the RB exon
# T1 peptide: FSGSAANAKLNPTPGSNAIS
# T2: Human 18 mer peptide (human)
# T2 construct: synthetic peptide from the RB exon
# T2 peptide: VSSVQTPHLPTHADSQTPC
# T3: Human 46 mer peptide (RB exon of human CD45) (human)
# T3 construct: synthetic peptide; also called CD45RB 46 mer
# T3 peptide: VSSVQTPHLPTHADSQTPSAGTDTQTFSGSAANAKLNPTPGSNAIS
# T4: Human 20.1 peptide (human)
# T4 construct: synthetic peptide from the RB exon
# T4 peptide: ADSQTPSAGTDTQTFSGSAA
# T5: Macaque 46 mer peptide (RB exon of macaque CD45RB) (macaque)
# T5 construct: synthetic peptide
# T5 peptide: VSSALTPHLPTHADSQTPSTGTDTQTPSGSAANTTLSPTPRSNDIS
# T6: chimeric CD45RB (full length human CD45RB with the macaque RB exon) transiently expressed in CHO cells (human; macaque, UniProt P08575-9 26-33; P08575-9 81-1192)
# T6 construct: whole chimeric protein on CHO cells; also called Macaque CD45RB CHO
# T6 sequence: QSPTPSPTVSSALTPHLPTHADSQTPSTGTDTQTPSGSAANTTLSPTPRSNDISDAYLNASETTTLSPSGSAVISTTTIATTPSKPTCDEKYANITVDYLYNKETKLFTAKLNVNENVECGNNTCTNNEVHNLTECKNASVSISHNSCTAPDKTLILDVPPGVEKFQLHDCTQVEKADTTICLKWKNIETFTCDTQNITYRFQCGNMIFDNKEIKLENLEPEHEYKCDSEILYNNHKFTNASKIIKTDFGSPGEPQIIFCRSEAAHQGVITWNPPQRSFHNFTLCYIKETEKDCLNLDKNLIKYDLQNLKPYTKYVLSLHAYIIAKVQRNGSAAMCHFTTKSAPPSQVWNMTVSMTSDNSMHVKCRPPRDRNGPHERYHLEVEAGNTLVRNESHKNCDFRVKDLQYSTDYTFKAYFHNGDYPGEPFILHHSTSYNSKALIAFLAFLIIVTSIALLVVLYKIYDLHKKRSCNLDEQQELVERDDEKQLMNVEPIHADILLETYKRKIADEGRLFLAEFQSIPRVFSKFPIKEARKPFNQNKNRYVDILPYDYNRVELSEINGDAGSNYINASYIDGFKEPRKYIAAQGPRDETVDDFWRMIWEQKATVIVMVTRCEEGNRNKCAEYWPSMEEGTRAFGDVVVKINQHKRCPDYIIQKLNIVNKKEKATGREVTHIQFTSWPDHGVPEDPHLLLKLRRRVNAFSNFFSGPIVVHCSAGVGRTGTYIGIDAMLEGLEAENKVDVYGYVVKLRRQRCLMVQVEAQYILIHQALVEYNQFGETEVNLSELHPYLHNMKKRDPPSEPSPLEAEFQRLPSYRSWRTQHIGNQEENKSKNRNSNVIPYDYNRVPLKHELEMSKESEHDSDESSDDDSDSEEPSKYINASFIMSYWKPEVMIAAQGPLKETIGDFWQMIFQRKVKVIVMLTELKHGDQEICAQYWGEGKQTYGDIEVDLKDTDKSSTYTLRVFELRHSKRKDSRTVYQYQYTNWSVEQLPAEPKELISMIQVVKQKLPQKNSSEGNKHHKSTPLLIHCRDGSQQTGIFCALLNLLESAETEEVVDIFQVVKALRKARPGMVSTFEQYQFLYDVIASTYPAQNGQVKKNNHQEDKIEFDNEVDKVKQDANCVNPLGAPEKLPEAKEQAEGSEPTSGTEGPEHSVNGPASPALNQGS
# B1: AB-CD45RB-XG2-525 (antibody, human IgG2, V domains shown)
# VH: QVQLVESGGGVVQPGRSLRVSCAASGFTFSNYGMHWVRQAPGKGLEWVAVIWYDGSKKFYADSVKGRFTISRDNSQNTLSLQMSSLRAEDTAVYYCARGGGDFDFWGQGTLVTVSS
# VL: KIVMTQSPATLSVSPGERATLSCRASQSLSGSYLAWYQQRPGQAPRLLIYGASTRATGIPARFSGSGSGTEFTLTISSLQSEDFAVYYCQQYNKWPPLTFGGGTKVEIK
# notes: recombinant human IgG2 kappa; also called sc525
# B2: AB-CD45RB-XG2-487 (antibody, human IgG2, V domains shown)
# VH: B1 VH with A23E
# VL: B1 VL with L29V, S32N, N93G
# notes: recombinant human IgG2 kappa; also called sc487
# B3: AB-CD45RB-XG2-493 (antibody, human IgG2, V domains shown)
# VH: B1 VH
# VL: B1 VL with A9V, S26C, L29V, N93G
# notes: recombinant human IgG2 kappa; also called sc493
# B4: AB-CD45RB-XG2-713 (antibody, human IgG2, V domains shown)
# VH: B1 VH with V20L, S75F, Q76E, N77K, S80Y, S84N, F105Y
# VL: B1 VL with K1E, R40K, G51S, K94N
# notes: recombinant human IgG2 kappa; also called sc713
# B5: AB-CD45RB-XG2-475 (antibody, human IgG2, V domains shown)
# VH: AVQLLESGGGLIQPGGSLRLSCAASGFTFSSYAMSWVRQAPGKGLEWVSAISGSGGSTFYADSVRGRFTISRDNSKNTLYLQMNSLRVEDTAVYYCAKEVMGPIFFDYWGQGTLVTVSS
# VL: EIVLTQSPGTLSLSPGERATLSCRASQSIISSALAWYQQKPGQAPRLLIYGASSRATGIPDRFSGSGSGTDFTLTISRLEPEDFAVYHCQQYGSTPLTFGGGTKVEIK
# notes: recombinant human IgG2 kappa; also called sc475
# B6: AB-CD45RB-XG2-593 (antibody, human IgG2, V domains shown)
# VH: B1 VH
# VL: B1 VL with L29V, S32N, N93G
# notes: recombinant human IgG2 kappa; also called sc593
# B7: AB-CD45RB-XG2-502 (antibody, human IgG2, V domains shown)
# VH: B1 VH with G42D
# VL: B1 VL with L29V, S32N, Q39R, N93G
# notes: recombinant human IgG2 kappa; also called sc502
# B8: AB-CD45RB-XG2-556 (antibody, human IgG2, V domains shown)
# VH: QVQLQESGPGLVKPSETLSLTCTVSGGSISGYYWSWIRQPAGKGLEWIGRIHTTGKTAYNPSLKSRVIMSVDTSKNLFSLKLTSVTAADTAVYYCARDYDFLTGYFDYWGQGTLVTVSS
# VL: DVVMTQSPLSLPVTLGQPASISCRSSQSLVYSDGNTYLNWFQQRPGHSPRRLIYKVSNWDSGVPDRFSGSGSGTDFTLKISRVEAEDVGIYYCMQGTHWPPTFGQGTRVEIK
# notes: recombinant human IgG2 kappa; also called sc556
# B9: AB-CD45RB-XG2-569 (antibody, human IgG2, V domains shown)
# VH: B8 VH with P61S
# VL: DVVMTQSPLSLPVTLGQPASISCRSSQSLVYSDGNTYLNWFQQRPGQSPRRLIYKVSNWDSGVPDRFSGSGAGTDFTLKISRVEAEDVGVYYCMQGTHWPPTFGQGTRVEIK
# notes: recombinant human IgG2 kappa; also called sc569
# B10: AB-CD45RB-XG2-606 (antibody, human IgG2, V domains shown)
# VH: B1 VH with V5A, V20L, V50I, Q76N, S80Y, Q82H, M83V, S84N, A88V, F103I
# VL: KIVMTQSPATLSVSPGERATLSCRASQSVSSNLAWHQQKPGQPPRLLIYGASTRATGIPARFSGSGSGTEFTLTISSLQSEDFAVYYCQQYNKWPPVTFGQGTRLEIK
# notes: recombinant human IgG2 kappa; also called sc606
# B11: AB-CD45RB-XG2-636 (antibody, human IgG2, V domains shown)
# VH: QVHLVESGGGLVKPGGSLRLSCAASGFTFINYYMTWIRQAPGKGLEWVSYISLSGSTIYYADSVKGRFTISRDNAKNSLFLQMNSLRAEDTAVYYCARRAATVTTFDYWGQGTLVTVSS
# VL: EIVMTQSPATLSVSPGERATLSCRASQSVRSNLAWSQQKPGQAPRLLIYGASTRATGIPARFSGSGSGTEFTLTISSLQSEDFAVYYCQQYNNWPLTFGGGTKVEIK
# notes: recombinant human IgG2 kappa; also called sc636
# B12: AB-CD45RB-XG2-662 (antibody, human IgG2, V domains shown)
# VH: QVQLVESGGDLVKPGGSLRLSCAASGFSFSGYYLSWIRQAPGKGLEWVSYISLSGSFIKYADSVKGRFTISRDNAKKTLHLQMNSLRAEDTAVYYCARRTGTTTVFDYWGQGTLVTVSS
# VL: B11 VL with I2V, R30N, S36Y, K39R, A55V
# notes: recombinant human IgG2 kappa; also called sc662
# B13: AB-CD45RB-XG2-026 (antibody, human IgG2, V domains shown)
# VH: B1 VH with V20L, K57N, F59Y, Q76K, S80Y, S84N, F105Y
# VL: B1 VL with K1E, A19V, S28T, L29I, R40K, S53F, K94N, K105R
# notes: recombinant human IgG2 kappa; also called sc026; 1G10 (sc026)
# B14: AB-CD45RB-XG2-275 (antibody, human IgG2, V domains shown)
# VH: QVQLVESGGGVVQPGRSLRLSCAASGFTFSKFGMHWVRQAPDKGLEWVAVIWYDGTYKYYADSVKGRFTISRDNSKNTLYLQMNSLRAEDTAVYYCARGGGSFDYWGQGTLVTVSS
# VL: DIVMTQTPLSLSVTPGQPASISCKSSQSLLHSDGKTFLYWYLQKPGQPPQLLIYEVSNRFSGVPDRFSGSGSGIDFTLKISRVEAEDVGVYYCMQSIQFPITFGQGTRLEIK
# notes: recombinant human IgG2 kappa; also called sc275
# B15: AB-CD45RB-XG2-324 (antibody, human IgG2, V domains shown)
# VH: B14 VH with T56S, V93A
# VL: B14 VL
# notes: recombinant human IgG2 kappa; also called sc324; 39E11 (sc324)
# B16: AB-CD45RB-XG2-413 (antibody, human IgG2, V domains shown)
# VH: B14 VH with K31S, F32Y, T56S
# VL: B14 VL with S32R, I74T
# notes: recombinant human IgG2 kappa; also called sc413
# B17: AB-CD45RB-XG2-416 (antibody, human IgG2, V domains shown)
# VH: B14 VH with K31R, F32Y, D42G, T56S, Y57N, M83V
# VL: B14 VL with S68G, I74T, K112E
# notes: recombinant human IgG2 kappa; also called sc416
# B18: AB-CD45RB-XG2-439 (antibody, human IgG2, V domains shown)
# VH: B1 VH with V20L, Q76K, T78M, L79Q, S80Y, S84D, F105Y, T110I
# VL: B1 VL with K1E, S28N, S32K, R40K, R46S, L47R, A52T, I59V, F84S, K94N
# notes: recombinant human IgG2 kappa; also called sc439
# B19: AB-CD45RB-XG2-446 (antibody, human IgG2, V domains shown)
# VH: B1 VH with R16K, V20L, S30R, Q76K, S80N, S84N, A97V, F105Y
# VL: EIVMTQSPATLSVSLGERATLSCRASQNISGNYLAWYQQRPGQAPRRLIYSASSRATGIPDRFSGSGSGTEFTLTISSLQSEDFAVYYCQQYNNWPPLTFGGGTKVEMK
# notes: recombinant human IgG2 kappa; also called sc446
# Target: T1, Human 20.2 peptide
# Test: recombinant antibody on peptide
row,Binder,binding result
1,B1,no binding
2,B2,no binding
3,B3,no binding
4,B4,no binding
5,B5,no binding
6,B6,no binding
7,B7,no binding
8,B8,no binding
9,B9,no binding
10,B10,no binding
11,B11,no binding
12,B12,no binding
13,B13,no binding
14,B14,no binding
15,B15,no binding
16,B16,no binding
17,B17,no binding
18,B18,no binding
19,B19,no binding

# Target: T2, Human 18 mer peptide
# Test: recombinant antibody on peptide
row,Binder,binding result
1,B1,no binding
2,B2,no binding
3,B3,no binding
4,B4,no binding
5,B6,no binding
6,B7,no binding
7,B10,no binding
8,B11,no binding
9,B12,no binding
10,B13,no binding
11,B18,no binding
12,B19,no binding

# Target: T3, Human 46 mer peptide (RB exon of human …)
# Test: recombinant antibody on peptide
row,Binder,binding result
1,B8,no binding
2,B11,no binding
3,B12,no binding

# Target: T4, Human 20.1 peptide
# Test: recombinant antibody on peptide
row,Binder,binding result
1,B1,no binding
2,B2,no binding
3,B3,no binding
4,B4,no binding
5,B6,no binding
6,B10,no binding
7,B11,no binding
8,B12,no binding
9,B13,no binding
10,B18,no binding
11,B19,no binding

# Target: T5, Macaque 46 mer peptide (RB exon of …)
# Test: recombinant antibody on peptide
row,Binder,binding result
1,B1,no binding
2,B2,no binding
3,B3,no binding
4,B4,no binding
5,B6,no binding
6,B8,no binding
7,B10,no binding
8,B11,no binding
9,B12,no binding
10,B13,no binding
11,B18,no binding
12,B19,no binding

# Target: T6, chimeric CD45RB (full length human …)
# Test: transiently transfected CHO cells
row,Binder,binding result
1,B1,no binding
2,B2,no binding
3,B3,no binding
4,B4,no binding
5,B6,no binding
6,B7,no binding
7,B8,no binding
8,B10,no binding
9,B13,no binding
10,B18,no binding
11,B19,no binding
